Test results: patent publication US20100009923A1

Target: … (MimA2) presented by H-2D^b on peptide-pulsed RMA-S cells (mouse) (UniProt P01899)
Test: cell-based or functional assay

Sequence of … (MimA2) presented by H-2D^b on peptide-pulsed RMA-S cells (mouse) (P01899 25-362): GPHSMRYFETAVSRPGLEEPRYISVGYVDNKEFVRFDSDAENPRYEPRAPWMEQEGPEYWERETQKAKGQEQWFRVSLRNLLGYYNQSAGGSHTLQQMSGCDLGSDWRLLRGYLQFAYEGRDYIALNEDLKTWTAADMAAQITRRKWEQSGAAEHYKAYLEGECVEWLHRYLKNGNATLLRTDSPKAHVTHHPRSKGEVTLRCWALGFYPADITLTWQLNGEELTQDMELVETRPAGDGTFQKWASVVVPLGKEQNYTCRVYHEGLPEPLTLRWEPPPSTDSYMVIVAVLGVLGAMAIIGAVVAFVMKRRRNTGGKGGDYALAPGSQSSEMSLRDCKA

“TCR of the β cell-autoreactive CD8+ T cell clone AI4 (Vα8/Vβ2)” gave a peptide concentration giving half-maximal activity in the AI4 cytotoxicity assay (51Cr release, E:T 40, RMA-S targets) of 10 pM.
